The subject of this data set is ATP. The experiment in a line: switch fluorescence ratio, 500 uM ATP over buffer (Cy3 cluster intensity, sum of 5 cycles each) (fold (ratio)); higher = stronger signal-on switching upon ATP binding; sequences stand for … in TCGTCGGCAGCGTCAGATGTGTATAAGAGACAGTTTTTTTTTTTTTTTTTTTTTTTTT…TC. Particulars: aptamer strand: ATP DNA aptamer (quencher-CACCTGGGGGAGTATTGCGGAGGAAGG + anchor), 100 nM annealed; ATP concentration: 500 uM. In a few lines:
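Exposure to 500 uM ATP lasted 15 min at 22 °C before imaging, and a selection-buffer image was taken beforehand, for Cy3-labelled switching-strand clusters on a modified Illumina MiSeq flow-cell annealed to 100 nM quencher-labelled ATP aptamer. Five buffer/ATP cycles were run with NaOH stripping and re-annealing between them. The fluorescence ratio per cluster is summed target-cycle over summed buffer-cycle Cy3 intensity, averaged per switch-domain sequence. Clusters outside 100-1000 RFU were excluded.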

± gives the standard deviation of the averaged measurements.

For GGTATTCAGG, the switch fluorescence ratio was found to be 1.03 ± 0.018. GGTATTCATG: the switch fluorescence ratio came to 1.01 ± 0.011. The result for GGTATTCATT reads 0.995 ± 0.036; that for GGTATTGGGC, 0.9875 ± 0.0056; that for GGTATTTATT, 1.01 ± 0.019. For GGTATTTGTA the value was 0.991 ± 0.031. For GGTATTTGTT the value was 1.01 ± 0.032; for GGTATTTTGC, 0.979 ± 0.048. For GGTATTTTTT, the switch fluorescence ratio was determined as 0.997 ± 0.025. For the sequence GGTCAATGTG, the switch fluorescence ratio amounted to 0.987 ± 0.033.

GGTCAATTAT: the switch fluorescence ratio was 1.05 ± 0.068.

On to GGTCACAAGA, for which the switch fluorescence ratio is 1 ± 0.032. GGTCACGGGT: the switch fluorescence ratio was 0.981 ± 0.031. The result for GGTCAGGGGC reads 1.08 ± 0.017; that for GGTCATAGAC, 0.991 ± 0.026; that for GGTCATTATT, 0.968 ± 0.057. GGTCATTCAA: the switch fluorescence ratio turned out to be 0.982 ± 0.027.

Turning to GGTCCAACTG, the switch fluorescence ratio was determined as 0.987 ± 0.036. Take GGTCCAGGGC: the switch fluorescence ratio stood at 1.08 ± 0.04. The result for GGTCCCATCG reads 0.985 ± 0.019. With GGTCCCGGGG, the switch fluorescence ratio is 1.05 ± 0.026. For GGTCCGATCG the value was 0.9694 ± 0.0045.

Turning to GGTCCGGGGA, the switch fluorescence ratio was 0.989 ± 0.013. The result for GGTCCGGGGG reads 1.02 ± 0.025; that for GGTCCTTTGA, 1 ± 0.029; that for GGTCGAAAAC, 1.06 ± 0.11.

As to GGTCGAGGGT, the switch fluorescence ratio was 1.022 ± 0.0041. For GGTCGATTCG the value was 0.961 ± 0.013; for GGTCGCAACC, 1.04 ± 0.049; for GGTCGCTGCG, 0.9956 ± 0.0069. For GGTCGGGGTC the value was 0.966 ± 0.039; for GGTCGGGGTT, 1.02 ± 0.034. As for GGTCGTCAGT, the switch fluorescence ratio amounted to 0.986 ± 0.037. Take GGTCGTTGCT: the switch fluorescence ratio was determined as 0.9456 ± 0.0046.

On to GGTCGTTTGC, for which the switch fluorescence ratio came out at 1.05 ± 0.074. For the sequence GGTCTAAATT, the switch fluorescence ratio was 1 ± 0.039. Take GGTCTAAGGG: the switch fluorescence ratio was determined as 0.976 ± 0.036.

Consider GGTCTAAGTG, for which the switch fluorescence ratio was 0.9816 ± 0.0034. In the case of GGTCTAATGG, the switch fluorescence ratio came out at 0.998 ± 0.051.

Turning to GGTCTGGAAG, the switch fluorescence ratio is 0.982 ± 0.035. The result for GGTCTTACCA reads 0.98367 ± 0.00036. With GGTCTTCCGC, the switch fluorescence ratio was 1.14 ± 0.088. For GGTGAAAAAG the value was 1.01 ± 0.011.

For GGTGAAGAGT, the switch fluorescence ratio amounted to 1 ± 0.038.

In the case of GGTGACACAG, the switch fluorescence ratio came to 0.988 ± 0.017.

GGTGACAGGC: the switch fluorescence ratio amounted to 1.04 ± 0.08. For GGTGAGAGTT the value was 0.956 ± 0.0087; for GGTGAGATGG, 1 ± 0.069; for GGTGAGGCTG, 0.996 ± 0.015.

Turning to GGTGAGGGGA, the switch fluorescence ratio came out at 1.01 ± 0.011. Turning to GGTGAGGTGC, the switch fluorescence ratio is 0.9995 ± 0.0084. For GGTGATGGGA the value was 0.976 ± 0.021; for GGTGCACCGA, 0.9884 ± 0.0063. For GGTGCAGTGT the value was 1.05 ± 0.017; for GGTGCCGAAT, 0.998 ± 0.031; for GGTGCGGCTT, 1.007 ± 0.0072. As to GGTGCGGGCG, the switch fluorescence ratio was found to be 1.02 ± 0.11. The result for GGTGCGGGGG reads 0.987 ± 0.093; that for GGTGCTGAAG, 1.01 ± 0.021; that for GGTGCTGGGG, 1.01 ± 0.019. For GGTGCTTAAT the value was 1 ± 0.037. Turning to GGTGGAAATC, the switch fluorescence ratio was 1.09 ± 0.16. GGTGGAGATC: the switch fluorescence ratio is 1 ± 0.051. The result for GGTGGAGCGG reads 1 ± 0.047. The result for GGTGGAGGTT reads 1.02 ± 0.051; that for GGTGGATTGC, 1.04 ± 0.02; that for GGTGGCATGT, 0.997 ± 0.054. Turning to GGTGGCTAGC, the switch fluorescence ratio amounted to 1 ± 0.044. For GGTGGCTTAA the value was 0.96 ± 0.024; for GGTGGGAAGA, 1.02 ± 0.017. Turning to GGTGGGCAAT, the switch fluorescence ratio came to 1.11 ± 0.045. On to GGTGGGGCTG, for which the switch fluorescence ratio was 0.968 ± 0.03. In the case of GGTGGGGGCG, the switch fluorescence ratio was 1 ± 0.024. For GGTGGGGGCT the value was 0.973 ± 0.034; for GGTGGGGTCG, 0.991 ± 0.046. The result for GGTGGGGTTG reads 1 ± 0.04. For GGTGGGTGAG the value was 0.9745 ± 0.0094. For GGTGGGTGTA, the switch fluorescence ratio amounted to 0.957 ± 0.051. For the sequence GGTGGGTGTT, the switch fluorescence ratio came out at 0.951 ± 0.017. For GGTGGGTTGG the value was 0.982 ± 0.034. Turning to GGTGGGTTTT, the switch fluorescence ratio is 0.99 ± 0.013. For GGTGGTCGAC the value was 1.03 ± 0.038; for GGTGGTGGAC, 0.992 ± 0.037. For GGTGGTGGCG the value was 1.01 ± 0.059; for GGTGGTTGGG, 1.01 ± 0.038; for GGTGGTTTTT, 1.03 ± 0.099. For GGTGTAATTG the value was 1.003 ± 0.0065.

As to GGTGTAGATT, the switch fluorescence ratio was found to be 1.07 ± 0.04. Consider GGTGTATGGG, for which the switch fluorescence ratio turned out to be 1.01 ± 0.014. The result for GGTGTATTGG reads 0.991 ± 0.029; that for GGTGTCTCCC, 1 ± 0.039. As for GGTGTGCAAG, the switch fluorescence ratio turned out to be 0.947 ± 0.04.

GGTGTGGAAA: the switch fluorescence ratio is 1 ± 0.015. Turning to GGTGTGGAAT, the switch fluorescence ratio came out at 1.02 ± 0.033. The result for GGTGTGGGGT reads 0.986 ± 0.02; that for GGTGTTAGAC, 0.976 ± 0.029; that for GGTGTTAGAT, 0.993 ± 0.035. For GGTGTTAGGG the value was 1.02 ± 0.027; for GGTGTTCGTG, 0.985 ± 0.019; for GGTGTTCTGC, 0.995 ± 0.081. As for GGTGTTGCGG, the switch fluorescence ratio was found to be 0.98 ± 0.038.

As for GGTTAAAATC, the switch fluorescence ratio came to 1.02 ± 0.023. Take GGTTAAACGG: the switch fluorescence ratio came out at 1.02 ± 0.013.

On to GGTTAAAGGG, for which the switch fluorescence ratio is 1.07 ± 0.15. The result for GGTTAACCTG reads 0.9959 ± 0.0062; that for GGTTAAGGCG, 0.9569 ± 0.0079. The result for GGTTAAGTAG reads 1.004 ± 0.0075.

As to GGTTAAGTGC, the switch fluorescence ratio was determined as 1.01 ± 0.029. Turning to GGTTAAGTGG, the switch fluorescence ratio turned out to be 1.01 ± 0.015. Consider GGTTAATTAG, for which the switch fluorescence ratio worked out at 0.9819 ± 0.0077. GGTTACCGTG: the switch fluorescence ratio came out at 0.997 ± 0.033. On to GGTTACGCTA, for which the switch fluorescence ratio amounted to 1.11 ± 0.074. The result for GGTTACGGGG reads 1.01 ± 0.013.

Take GGTTACGGTA: the switch fluorescence ratio came to 1.04 ± 0.031. For GGTTAGATTG, the switch fluorescence ratio was found to be 1.01 ± 0.006.

Regarding GGTTAGGATG, the switch fluorescence ratio came out at 0.97 ± 0.025. For GGTTAGTATG the value was 1.01 ± 0.027.

As to GGTTATCGAG, the switch fluorescence ratio is 0.975 ± 0.037.

GGTTATGGCC: the switch fluorescence ratio was determined as 1.01 ± 0.031. On to GGTTATGGGA, for which the switch fluorescence ratio turned out to be 0.996 ± 0.032.

The values are drawn from the supplement of paper PMC10126150.
